T1: human CEACAM3, full-length, on transfected HeLa cells (human, UniProt P40198 35-252)
T1 construct: also called TPP-4187; HeLa human CEACAM3
T1 sequence: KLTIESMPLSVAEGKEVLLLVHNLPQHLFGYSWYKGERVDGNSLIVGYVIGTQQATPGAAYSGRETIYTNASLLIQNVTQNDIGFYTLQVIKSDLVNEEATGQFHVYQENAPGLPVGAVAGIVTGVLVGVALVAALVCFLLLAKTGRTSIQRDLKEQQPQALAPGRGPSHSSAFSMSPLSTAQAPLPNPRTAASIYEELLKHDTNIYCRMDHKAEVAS

T2: human CEACAM8, full-length, on transfected HeLa cells (human, UniProt P31997 35-320)
T2 construct: also called TPP-4190; HeLa human CEACAM8
T2 sequence: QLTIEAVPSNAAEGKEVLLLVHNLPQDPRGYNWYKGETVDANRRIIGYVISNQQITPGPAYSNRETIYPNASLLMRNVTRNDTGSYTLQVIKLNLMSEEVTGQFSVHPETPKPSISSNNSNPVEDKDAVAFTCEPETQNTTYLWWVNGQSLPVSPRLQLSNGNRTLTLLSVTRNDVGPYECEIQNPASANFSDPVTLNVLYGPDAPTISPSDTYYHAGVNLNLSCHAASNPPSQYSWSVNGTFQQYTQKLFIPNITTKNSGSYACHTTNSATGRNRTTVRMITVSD

T3: human CEACAM1, full-length, on transfected HeLa cells (human, UniProt P13688 35-526)
T3 construct: also called TPP-4185; HeLa human CEACAM1
T3 sequence: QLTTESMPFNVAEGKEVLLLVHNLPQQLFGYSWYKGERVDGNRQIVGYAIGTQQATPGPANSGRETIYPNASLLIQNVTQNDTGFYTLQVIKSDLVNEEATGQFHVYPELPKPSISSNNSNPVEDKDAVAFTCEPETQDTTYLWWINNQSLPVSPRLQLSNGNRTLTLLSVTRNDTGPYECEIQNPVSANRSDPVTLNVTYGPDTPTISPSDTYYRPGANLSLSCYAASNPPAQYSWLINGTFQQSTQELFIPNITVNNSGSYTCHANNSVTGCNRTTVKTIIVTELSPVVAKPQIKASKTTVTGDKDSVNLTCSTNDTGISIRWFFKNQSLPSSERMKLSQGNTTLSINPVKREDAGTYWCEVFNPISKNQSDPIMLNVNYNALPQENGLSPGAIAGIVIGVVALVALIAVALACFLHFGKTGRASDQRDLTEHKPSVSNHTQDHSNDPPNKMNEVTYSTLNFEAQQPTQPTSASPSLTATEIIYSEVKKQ

T4: human CEACAM6, full-length, on cells (human, UniProt P40199 35-320)
T4 construct: used both for transfected HeLa cells and for tumor cell lines that express CEACAM6 endogenously; also called TPP-4639; HeLa human CEACAM6
T4 sequence: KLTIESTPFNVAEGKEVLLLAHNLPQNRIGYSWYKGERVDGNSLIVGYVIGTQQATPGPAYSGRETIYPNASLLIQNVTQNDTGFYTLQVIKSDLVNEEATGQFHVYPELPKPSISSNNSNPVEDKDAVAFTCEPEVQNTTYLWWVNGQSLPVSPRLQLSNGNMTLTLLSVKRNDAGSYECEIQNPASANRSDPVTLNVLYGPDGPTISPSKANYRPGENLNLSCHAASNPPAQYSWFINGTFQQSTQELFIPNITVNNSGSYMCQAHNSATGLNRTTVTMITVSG

T5: human CEACAM5, full-length, on transfected HeLa cells (human, UniProt P06731 35-685, GPI anchor at the C-terminus on the cell surface, not carried by the letters)
T5 construct: also called TPP-4188; HeLa human CEACAM5
T5 sequence: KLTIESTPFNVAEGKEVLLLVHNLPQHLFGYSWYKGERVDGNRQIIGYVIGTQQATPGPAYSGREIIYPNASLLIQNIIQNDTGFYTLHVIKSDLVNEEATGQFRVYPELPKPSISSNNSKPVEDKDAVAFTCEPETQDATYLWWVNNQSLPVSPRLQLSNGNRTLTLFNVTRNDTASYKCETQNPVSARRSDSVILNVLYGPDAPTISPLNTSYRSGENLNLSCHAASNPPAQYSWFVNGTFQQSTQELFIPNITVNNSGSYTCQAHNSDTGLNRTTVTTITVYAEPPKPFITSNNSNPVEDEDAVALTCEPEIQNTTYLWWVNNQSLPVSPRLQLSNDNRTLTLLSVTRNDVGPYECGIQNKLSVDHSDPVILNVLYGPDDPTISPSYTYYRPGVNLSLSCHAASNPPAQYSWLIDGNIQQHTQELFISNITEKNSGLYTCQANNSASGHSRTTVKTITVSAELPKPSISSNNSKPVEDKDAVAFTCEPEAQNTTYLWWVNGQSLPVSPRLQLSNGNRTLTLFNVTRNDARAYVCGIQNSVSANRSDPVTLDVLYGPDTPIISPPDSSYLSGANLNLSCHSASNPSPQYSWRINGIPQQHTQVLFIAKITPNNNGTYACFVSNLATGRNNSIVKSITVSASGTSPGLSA


Assays:
Experiment in all cases: FACS, transfected HeLa cells
[1] = target: T1, human CEACAM3, full-length, on …
Experimental: (§1) For FACS experiments HeLa wild type cells were cultured in RPMI-1640, 10% FCS, while CEACAM-receptor transfected HeLa cells received in addition 0.5% Gentamycin (stock 10 mg/ml, Fa. PAA) and 200 μg/ml Hygromycin B (stock 50 mg/ml, Invitrogen). Cells were washed 3 times with PBS w/o Ca²⁺/Mg²⁺ and were detached from the culture plate non-enzymatically with EDTA dissociation buffer (Gibco). Cells were washed in cold FACS buffer (PBS w/o Ca²⁺/Mg²⁺ and heat-inactivated 3% FCS) and were counted using a countess machine (Invitrogen). 10⁵ cells per well were plated and incubated with the respective primary antibody (5 μg/ml) for 1 h at 4° C. on a plate shaker. […] After 2 times washing the cells were resuspended in 100 μl FACS buffer and were analysed on a FACS Canto II machine (Beckton Dickinson) or a FACS Array (Beckton Dickinson).
(§2) For EC₅₀ analysis, the primary antibodies were used at increasing concentrations in a range from 0.1 nM to 100 nM. Half maximal binding values (EC₅₀) were determined by plotting the median fluorescence intensity signal against the concentration (logarithmic scale). Curve fitting of data was performed using the Graph Pad prism analysis software.

[2] = target: T2, human CEACAM8, full-length, on …
Experimental: as §1, §2

[3] = target: T3, human CEACAM1, full-length, on …
Experimental: as §1, §2

[4] = target: T4, human CEACAM6, full-length, on cells
Experimental: as §1, §2

[5] = target: T5, human CEACAM5, full-length, on …
Experimental: as §1, §2

binding result [1]	binding result [2]	binding result [3]	EC50 [4] [nM]	binding result [5]	FACS median fluorescence [4] [medianfluorescence]	Binder
no binding (tested: 5 µg/ml)	no binding (tested: 5 µg/ml)	no binding (tested: 5 µg/ml)	1	no binding (tested: 5 µg/ml)		TPP-3714 (antibody, human IgG2, kappa, humanized from TPP-2971, human IgG2; also called TPP-2971HU2-hIgG2Kappa) heavy: QVTLRESGPALVKPTQTLTLTCTFSGFSLSTYGIGVGWIRQPPGKALEWLAHIWWNDNKYYSTSLKTRLTISKDTSKNQVVLTMTNMDPVDTATYYCARISLPYFDYWGQGTLVTVSSASTKGPSVFPLAPCSRSTSESTAALGCLVKDYFPEPVTVSWNSGALTSGVHTFPAVLQSSGLYSLSSVVTVPSSNFGTQTYTCNVDHKPSNTKVDKTVERKCCVECPPCPAPPVAGPSVFLFPPKPKDTLMISRTPEVTCVVVDVSHEDPEVQFNWYVDGVEVHNAKTKPREEQFNSTFRVVSVLTVVHQDWLNGKEYKCKVSNKGLPAPIEKTISKTKGQPREPQVYTLPPSREEMTKNQVSLTCLVKGFYPSDIAVEWESNGQPENNYKTTPPMLDSDGSFFLYSKLTVDKSRWQQGNVFSCSVMHEALHNHYTQKSLSLSPG light: DIQLTQSPSFLSASVGDRVTITCKASQNVGTAVAWYQQKPGKAPKLLIYSASNRYTGVPSRFSGSGSGTEFTLTISSLQPEDFATYYCQQYSSYPLTFGGGTKVEIKRTVAAPSVFIFPPSDEQLKSGTASVVCLLNNFYPREAKVQWKVDNALQSGNSQESVTEQDSKDSTYSLSSTLTLSKADYEKHKVYACEVTHQGLSSPVTKSFNRGEC
no binding (tested: 5 µg/ml)	no binding (tested: 5 µg/ml)	no binding (tested: 5 µg/ml)	0.6	no binding (tested: 5 µg/ml)	10 to 100	TPP-3323 (antibody, human IgG2, kappa, V domains shown, human IgG2 chimera; also called TPP-3187X1-hIgG2; hIgG2 chimera of TPP-3187) VH: QVTLKESGPGILQPSQTLSLTCSFSGFSLTTYGIGVGWIRQPSGKGLEWLAHIWWNDNKYYNTALKSRLTISKDTSNNQVFLKIASVDTADTATYYCARISLPYFDYWGQGTTLTVSS VL: DIVMTQSQKFMSTSVGDRVSITCKASQNVGTAVAWYQQKPGQSPKLLIYSASNRYTGVPDRFTGSGSGTDFTLTISNMQSEDLADYFCQQYNNYPLTFGAGTKLELKR
no binding (tested: 5 µg/ml)	no binding (tested: 5 µg/ml)	no binding (tested: 5 µg/ml)	0.45	no binding (tested: 5 µg/ml)	10 to 100	TPP-3308 (antibody, human IgG2, kappa, V domains shown, human IgG2 chimera; also called TPP-2971X1-hIgG2Kappa; hIgG2 chimera of TPP-2971) VH: QVTLKESGPGILQPSQTLSLTCSFSGFSLSTYGIGVGWIRQPSGKDLEWLAHIWWNDNKYYNTALKSRLTISKDTSNNQVFLKIASVDTADTATYYCARISLPYFDYWGQGTTLTVSS VL: DIVMTQSQKFMSTSVGDRVSITCKASQNVGTAVAWYQQKPGQSPKLLIYSASNRYTGVPDRFTGSGSGTDFTLTISNMQSEDLADYFCQQYSSYPLTFGAGTKLELKR

Reference: patent US20200181261A1 (Bayer, published 2020)
